Read-outs that look alike come from different tables or passages of the source. Peptide text beside a SMILES is read from it. * marks the point of attachment. X1 = C=CC1=C(C)c2cc3[nH]c(cc4nc(cc5[nH]c(cc1n2)c(C)c5CCC(=O)*)C(CCC(=O)O)=C4C)c(C)c3C=C; X3 = C=CC1=C(C)c2cc3[nH]c(cc4nc(cc5[nH]c(cc1n2)c(C)c5CCC(=O)O)C(CCC(=O)*)=C4C)c(C)c3C=C; X2 = CCC1=C(C)c2cc3[nH]c(cc4nc(cc5[nH]c(cc1n2)c(C)c5CCC(=O)O)C(CCC(=O)*)=C4C)c(C)c3CC
How the values were obtained:
JEG-3 cells [1] = settings: FD4 content in basolateral side after 24 h incubation with compound, then 2 h FD4; untreated BPB 1.23%
Procedure: (§1) After 24 h incubation with conjugates in the set-up shown in Figure 1, an in vitro integrity assay was performed. HBEC-5i (for BBB) or JEG-3 (for BPB) cells were washed twice with PBS and once with a medium without phenol red. DMEM:F12 medium was used with HBEC-5i cells and EMEM medium was used with JEG-3 cells. Then, previously diluted 4 kDa fluorescein isothiocyanate-dextran (FD4) (Sigma-Aldrich, Spain) in the medium indicated above for each cell line and without phenol red to an absorbance of 0.1 was added to the apical side (1) and incubated for 2 h. Samples were collected at the basolateral side (2), and fluorescence intensity was measured at λex=493 nm and λem=520 nm using a Varioskan Lux plate reader. Barrier integrity was evaluated from FD4 permeability as follows: FD4 Permeability(%) = (Fi −Fcells)/(FFD4 −FMedium) × 100 [formula] where Fi is the fluorescence intensity of the sample at the basolateral side (2), Fcells is the intrinsic fluorescence intensity of cells without FD4 incubation, FFD4 is the intensity of FD4 stock initially added to the apical side (1), and FMedium is the intensity of the medium indicated above for each cell line and without phenol red.
JEG-3 cells were cultured as a monolayer on T-flasks in EMEM supplemented with 10% (v/v) FBS and 1% (v/v) Pen-Strep. Cells were grown in a humidified atmosphere of 5% CO2 at 37 °C with the medium changed every other day. Cells were allowed to grow until confluence in a culture T-flask, then carefully harvested with trypsin-EDTA and seeded (3000 cells/well) onto rat-tail collagen-coated tissue culture 24-well inserts (4). A cellular monolayer (3) with low permeability was formed 5 days after the incubation on the tissue culture insert (4).

HBEC-5i cells [2] = settings: 10 µM on apical side, 24 h incubation; percentage of compound in the basolateral side
Procedure: HBEC-5i cells were cultured as a monolayer (3) on T-flasks in DMEM:F12 supplemented with 10% (v/v) FBS, 1% (v/v) Pen-Strep and 1% (v/v) ECGS. Cells were grown in a humidified atmosphere of 5% CO2 at 37 °C (MCO-18AIC (UV), Sanyo, Japan) with the medium changed every other day. Cells were allowed to grow until confluence in a culture T-flask, then carefully harvested with trypsin-EDTA and seeded (8000 cells/well) into tissue culture 24-well inserts (4) (transparent polyester membrane with 1.0 µm pores) (BD Falcon, USA) pre-coated with attachment factor protein solution. The medium was changed every other day for 5-8 days, afterwards cells were washed with 1 × PBS followed by DMEM:F12 medium without phenol red. Next, the conjugates were diluted in DMEM:F12 without phenol red, until reaching a final 10 µM concentration, and were added to the apical side (1) of the in vitro BBB model.
(§2) Conjugate translocation was determined by fluorescence intensity (λex= 410 nm, λem = 625 nm for MP conjugates; λex=410 nm, λem=635 nm for PP conjugates). […] After 24 h incubation, samples from the basolateral side (2) were collected and analyzed. Fluorescence was measured in a Varioskan Lux plate reader (Thermo Scientific). PPC translocation (%) was calculated as follows: PPC translocation(%) = (F_i−Fcells)/(F_PPC−F_Medium) × 100 [formula] where Fi is the fluorescence intensity of the sample collected at the basolateral side (2), Fcells is the intrinsic fluorescence intensity of cells without incubation with a peptide-protein conjugate PPC, FPPC is the intensity of total PPC initially added to the transwell apical side (1), and FMedium is the intensity of DMEM:F12 medium without phenol red.

[3] = Serum stability in human serum; format: in vitro ADME; settings: human serum (1:1 v/v with HEPES buffer), pH 7.8, 37 °C, read-out: Serum half-life time (converted)
Procedure: Next, 600 µL of the solution comprising the conjugate or peptide were mixed (1:1 v/v) with 600 µL of human serum, to reach a final concentration of 0.05 mM. The mixture was incubated at 37 °C and, at various time points, 50 µL (in triplicate) were taken and precipitated with 200 µL cold methanol. The samples were centrifuged at 13000 rpm, 10 min, +4 °C. Afterwards, 50 µL of each supernatant were injected on an LC-20AD instrument (Shimadzu) equipped with a Luna C18 column (4.6 mm × 50 mm, 3 µm, Phenomenex, USA) and analyzed using a 0%-95% linear gradient of MeCN into 0.1% TFA in H2O over 15 min with 1 mL/min flow rate. PDA detection at 220 nm and 401 nm was used and the half-life times were calculated by peak area integration at 401 nm, the λmax of MP and PP. Controls included blank serum (25 µL each of 1:1 v/v serum + HEPES buffer, then precipitation with 200 µL cold methanol), untreated conjugate/peptide (25 µL of 0.1 mM stock in HEPES buffer + 25 µL HEPES buffer, then precipitation with 200 µL cold methanol), and a zero-time sample (200 µL cold methanol + 25 µL serum + 25 µL 0.1 mM conjugate/peptide stock), the conjugate/peptide added last to avoid any contact with protease. Controls were analyzed by LC and LC-MS as described above.

JEG-3 cells [4] = settings: 10 µM on apical side, 24 h incubation; percentage of compound in the basolateral side
Procedure: as §2
JEG-3 cells were cultured as a monolayer on T-flasks in EMEM supplemented with 10% (v/v) FBS and 1% (v/v) Pen-Strep. Cells were grown in a humidified atmosphere of 5% CO2 at 37 °C with the medium changed every other day. Cells were allowed to grow until confluence in a culture T-flask, then carefully harvested with trypsin-EDTA and seeded (3000 cells/well) onto rat-tail collagen-coated tissue culture 24-well inserts (4). A cellular monolayer (3) with low permeability was formed 5 days after the incubation on the tissue culture insert (4). BPB translocation and integrity measurement methods are identical to those for the BBB in vitro model defined above.

JEG-3 cells [5] = settings: JEG-3, concentrations of up to 50 µM, 24 h
Procedure: (§3) HBEC-5i cells and JEG-3 cells were plated in attachment factor protein and rat-tail collagen, respectively, pre-coated 96-well flat bottom clear, black polystyrene plate (Corning, New York, USA). Afterwards cells were cultured in complete medium at 37 °C in a 5% CO2 atmosphere, with medium replaced every 2 days. When the cellular monolayer was formed, cells were treated with various concentrations of conjugates in the 6.25-50 µM range, for 24 h at 37 °C in a 5% CO2 atmosphere. Viability was evaluated by the CellTiter-Blue® assay (Promega, WI, USA), based on resazurin reduction into highly fluorescent resorufin by metabolically active cells. By distinguishing metabolic from non-metabolic cells, cytotoxicity can be indirectly determined. After incubation, cells were washed with PBS, pH 7.4, and 15 µL of CellTiterBlue® reagent in 100 µL of complete medium was added to the cells and incubated for 1.5 h at 37 °C in 5% CO2. Fluorescence (λex=560 nm, λem=590 nm), was measured in a Varioskan Lux plate reader. Complete medium and medium containing 0.25% Triton X-100 were used as positive and negative controls (100 and 0% viability), respectively. Cell viability (%) was determined as: Cell viability(%) = (F_treated−F_blank)/(F_(nontreated)−F_blank) × 100 [formula] where Ftreated is the fluorescence intensity of cells treated with a conjugate, Fnon treated is the fluorescence of untreated cells and Fblank is the fluorescence of CellTiterBlue® reagent in complete medium without cells.

HBEC-5i cells [6] = settings: concentrations of up to 50 µM, 24 h
Procedure: as §3

HBEC-5i cells [7] = settings: FD4 content in basolateral side after 24 h incubation with compound, then 2 h FD4; untreated BBB 10.3%
Procedure: as §1

ZIKV = settings: read-out: IC50 value for inactivation of ZIKV, cited from earlier work
ZIKV^BR = settings: virus pre-treated 1 h at 37 °C, in the dark, 0.01-50 µM
Procedure: ZIKV^BR was propagated in C6/36 cells using a multiplicity of infection (MOI) of 0.01. After infection, cells were cultured for 7 days. The culture medium collected from the infected cultures was centrifuged at 700 g to remove cellular debris, stored in aliquots at -80 °C and titrated by plaque assay.
To determine the effect of conjugates on ZIKV^BR as prepared above, 10^5 plaque forming units (PFU) were pre-treated with different concentrations of conjugates in the 0.01-50 µM range for 1 h at 37 °C, in the dark. After treatment, viral samples were serially diluted (10-fold) for titration by plaque assay. Samples were incubated for 1 h at 37 °C and 5% CO2 with Vero cells. After infection, the medium was removed and 1 mL DMEM containing 1% (v/v) FBS, 100 U/mL penicillin, 100 µg/mL streptomycin and 1.5% carboxymethylcellulose was added to each well. The plates were incubated at 37 °C and 5% CO2. After 5 days cells were fixed by 1 mL of 4% (v/v) formaldehyde in H2O for 30 min. Each plate was washed and stained with a 1% (v/v) crystal violet, 20% (v/v) ethanol solution. The number of plaques on each well was counted and corrected for well dilution to determine the pfu/mL number. The half-maximum inhibitory concentration (IC50) was determined by non-linear regression with sigmoidal profile and variable slope using the software Graphpad Prism (version 6.0), only on treatments that achieved total inhibition.

| SMILES | BPB FD4 (%) (JEG-3 cells [1]) | BBB translocation (%) (HBEC-5i cells [2]) | half-life at 0.05 mM [3] [h] | BPB translocation (%) (JEG-3 cells [4]) | altered cell viability (JEG-3 cells [5]) | altered cell viability (HBEC-5i cells [6]) | BBB FD4 (%) (HBEC-5i cells [7]) | IC50 (ZIKV; with light activation) [µM] | IC50 (ZIKV; without light activation) [µM] | IC50 (ZIKV^BR) [µM] |
| --- | --- | --- | --- | --- | --- | --- | --- | --- | --- | --- |
| C=CC1=C(C)c2cc3[nH]c(cc4nc(cc5[nH]c(cc1n2)c(C)c5CCC(=O)N[C@H](C(=O)N[C@@H](CCC(N)=O)C(=O)N[C@@H](CCC(N)=O)C(=O)N[C@@H](CC(C)C)C(=O)N[C@H](C(=O)N[C@@H](CCCCN)C(=O)N[C@@H](CCCNC(=N)N)C(=O)N[C@@H](Cc1ccccc1)C(=O)N[C@@H](CO)C(=O)N[C@@H](CC(C)C)C(N)=O)[C@@H](C)O)C(C)C)C(CCC(=O)O)=C4C)c(C)c3C=C [(I)] (X1-VQQLTKRFSL-NH2) | 0.83 | 43.6 | 22.2 | 21.2 | none | none | 13.6 |  |  |  |
| C=Cc1c(C)c2cc3[nH]c(cc4nc(cc5nc(cc1[nH]2)C(C)=C5CCC(=O)[O-])C(CCC(=O)[O-])=C4C)c(C)c3C=C.[Co+2] [CoPPIX] |  |  |  |  |  |  |  | 5.79 | 2.49 |  |
| CCC1=C(C)c2cc3[nH]c(cc4nc(cc5[nH]c(cc1n2)c(C)c5CCC(=O)O)C(CCC(=O)NCCCC[C@H](NC(=O)[C@H](CC(C)C)NC(=O)[C@H](CO)NC(=O)[C@H](Cc1ccccc1)NC(=O)[C@H](CCCNC(=N)N)NC(=O)[C@H](CCCCN)NC(=O)[C@@H](NC(=O)[C@H](CC(C)C)NC(=O)[C@H](CCC(N)=O)NC(=O)[C@H](CCC(N)=O)NC(=O)[C@@H](N)C(C)C)[C@@H](C)O)C(N)=O)=C4C)c(C)c3CC [Compound P2-MP] (H-VQQLTKRFSLK(X2)-NH2) | 1.30 | 25.5 | 10.7 | 6.9 | none | none | 14.5 |  |  | > 50 |
| C=CC1=C(C)c2cc3[nH]c(cc4nc(cc5[nH]c(cc1n2)c(C)c5CCC(=O)NCCCC[C@H](NC(=O)[C@H](CC(C)C)NC(=O)[C@H](CO)NC(=O)[C@H](Cc1ccccc1)NC(=O)[C@H](CCCNC(=N)N)NC(=O)[C@H](CCCCN)NC(=O)[C@@H](NC(=O)[C@H](CC(C)C)NC(=O)[C@H](CCC(N)=O)NC(=O)[C@H](CCC(N)=O)NC(=O)[C@@H](N)C(C)C)[C@@H](C)O)C(N)=O)C(CCC(=O)O)=C4C)c(C)c3C=C [Compound P2-PP] (H-VQQLTKRFSLK(X1)-NH2) | 0.90 | 35.1 | 3.6 | 7.9 | none | none | 13.7 |  |  | > 50 |
| CCC1=C(C)c2cc3[nH]c(cc4nc(cc5[nH]c(cc1n2)c(C)c5CCC(=O)O)C(CCC(=O)NCCCC[C@H](NC(=O)[C@H](Cc1ccc(O)cc1)NC(=O)[C@H](CCC(=O)O)NC(=O)[C@H](CCC(=O)O)NC(=O)[C@H](CCC(N)=O)NC(=O)[C@@H](NC(=O)CNC(=O)[C@@H](N)CO)[C@@H](C)O)C(N)=O)=C4C)c(C)c3CC [Compound P4-MP] (H-SGTQEEYK(X2)-NH2) | 1.1 | 45.8 | 3 | 13 | none | none | 15.6 |  |  | > 50 |
| C=CC1=C(C)c2cc3[nH]c(cc4nc(cc5[nH]c(cc1n2)c(C)c5CCC(=O)O)C(CCC(=O)NCCCC[C@H](NC(=O)[C@H](Cc1ccc(O)cc1)NC(=O)[C@H](CCC(=O)O)NC(=O)[C@H](CCC(=O)O)NC(=O)[C@H](CCC(N)=O)NC(=O)[C@@H](NC(=O)CNC(=O)[C@@H](N)CO)[C@@H](C)O)C(N)=O)=C4C)c(C)c3C=C [Compound P4-PP] (H-SGTQEEYK(X3)-NH2) | 1.2 | 42.8 | 3.3 | 15.6 | none | none | 10.6 |  |  | > 50 |
